± gives the standard deviation of the averaged measurements.
B1: library; a variant is named by its letters at N, in order (parent)
chain: GCUGUCACCGGAAUACCAGCAUCGUCUUGAUGCCCUUGGAAGUCCGGUCUGAUGAGUCCNNNNNGGACGAAACAGC

Experiments:
theophylline [1] = variants of: B1; experiment: FACS-Seq fitted mean relative fluorescence mCherry/BFP without ligand (log10 relative fluorescence); higher = higher reporter protein expression; conditions: HEK293T, ligand present: no
Outline: (§1)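 Reporter cells were enriched HEK293T libraries transduced by lentivirus with mCherry behind the ribozyme switch and with an EF1α-BFP marker. Following 48 h with or without ligand, they were sorted into 6 mCherry/BFP bins, and bin genomic DNA was PCR-amplified, barcoded and MiSeq-sequenced. Fluorescence was computed as the fitted normal mean of the bin counts. The fit used log10(mCherry/BFP), with scaling to five spiked-in control ribozymes.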

theophylline [2] = variants of: B1; experiment: normalized RNA/DNA level with ligand (relative to sTRSVctl = 100) (log10 (% of sTRSVctl)); higher = less ribozyme self-cleavage, higher mRNA level; conditions: ligand concentration (+) RNA-Seq: 5 mM, HEK293T, reporter: mCherry (pCS4076), ligand present: yes
Outline: (§2)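 HEK293T cells were transfected with library plasmids carrying ribozyme switches linked to an mCherry reporter, or an eGFP reporter in some ligand experiments, at 4 µg per well of a 6-well plate, with any ligand added 1 h beforehand. After 72 h, total RNA was extracted with EDTA, reverse-transcribed, amplified, barcoded and sequenced. RNA level was defined as RNA reads over DNA reads, normalized to a spiked-in non-cleaving sequence or to the top-ranked sequences. That value was multiplied by 100 and converted to log10, the top set was 25 sequences, and only sequences with ≥100 DNA reads were retained.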

theophylline [3] = variants of: B1; experiment: normalized RNA/DNA level without ligand (relative to sTRSVctl = 100) (log10 (% of sTRSVctl)); higher = less ribozyme self-cleavage, higher mRNA level; conditions: HEK293T, reporter: mCherry (pCS4076), ligand present: no
Outline: as §2

theophylline [4] = variants of: B1; experiment: FACS-Seq fitted mean relative fluorescence mCherry/BFP with ligand (log10 relative fluorescence); ligand concentration (+) FACS-Seq: 1 mM; higher = higher reporter protein expression; conditions: HEK293T, ligand present: yes
Outline: as §1

Row | Variant | FACS-Seq fitted mean (log10) (theophylline [1]) | normalized RNA/DNA level with ligand (log10) (theophylline [2]) | normalized RNA/DNA level without ligand (log10) (theophylline [3]) | FACS-Seq fitted mean (log10) (theophylline [4])
1 | AUAGG | 0.526 ± 0.084 | 1.994 ± 0.0048 | 1.84 ± 0.068 | 0.441 ± 0.063
2 | GUACU | 0.8686 ± 0.0017 | 2 ± 0.044 | 1.93 ± 0.08 | 0.97 ± 0.03
3 | AUCAC | 0.845 ± 0.16 | 1.98 ± 0.022 | 1.96 ± 0.068 | 0.786 ± 0.039
4 | AUCAA | 1.02 ± 0.047 | 1.95 ± 0.084 | 1.68 ± 0.12 | 1.15 ± 0.083
5 | AGUUA | 0.892 ± 0.082 | 1.87 ± 0.14 | 1.68 ± 0.039 | 1.035 ± 0.0042
6 | AGUUC | 0.981 ± 0.011 | 2 ± 0.034 | 1.89 ± 0.049 | 1.02 ± 0.049
7 | AUCUU | 0.605 ± 0.046 | 2.03 ± 0.055 | 1.93 ± 0.086 | 0.585 ± 0.0056
8 | AUCUC | 0.832 ± 0.12 | 2.03 ± 0.032 | 1.97 ± 0.013 | 0.758 ± 0.14
9 | AUCUA | 0.874 ± 0.15 | 1.99 ± 0.087 | 1.89 ± 0.12 | 0.828 ± 0.069
10 | CUCUC | 0.298 ± 0.1 | 2.03 ± 0.027 | 1.95 ± 0.045 | 0.448 ± 0.12
11 | CUCUU | 0.739 ± 0.01 | 2.032 ± 0.0025 | 1.91 ± 0.07 | 0.874 ± 0.038
12 | CUCUA | 0.786 ± 0.075 | 2.05 ± 0.018 | 1.78 ± 0.063 | 0.994 ± 0.09
13 | UUGGA | 0.406 ± 0.064 | 2.01 ± 0.037 | 1.59 ± 0.14 | 0.494 ± 0.023
14 | UUCGU | 0.93 ± 0.0046 | 2.08 ± 0.14 | 2.02 ± 0.059 | 0.939 ± 0.067
15 | AUAAU | 0.702 ± 0.0096 | 2.002 ± 0.012 | 1.79 ± 0.079 | 0.703 ± 0.064
16 | AUAAC | 0.876 ± 0.022 | 2.05 ± 0.13 | 1.96 ± 0.15 | 0.881 ± 0.11
17 | AUAAG | 0.547 ± 0.16 | 1.97 ± 0.17 | 1.79 ± 0.082 | 0.578 ± 0.014
18 | AUAAA | 0.196 ± 0.0089 | 1.99 ± 0.037 | 1.4 ± 0.12 | 0.487 ± 0.033
19 | CGUCC | 0.784 ± 0.02 | 2.01 ± 0.086 | 2 ± 0.044 | 0.87 ± 0.021
20 | AUUCA | 0.9176 ± 0.0013 | 2.04 ± 0.066 | 1.83 ± 0.15 | 0.971 ± 0.12
21 | AUUCC | 0.959 ± 0.011 | 1.99 ± 0.1 | 1.95 ± 0.072 | 0.909 ± 0.08
22 | CUAGA | 0.973 ± 0.064 | 1.96 ± 0.084 | 1.83 ± 0.04 | 0.9812 ± 0.0091
23 | AGUAG | 0.85 ± 0.075 | 1.97 ± 0.1 | 1.71 ± 0.034 | 0.8838 ± 0.0022
24 | AGUAC | 0.729 ± 0.04 | 1.997 ± 0.019 | 1.83 ± 0.068 | 0.749 ± 0.072

Row | Variant | FACS-Seq fitted mean (log10) (theophylline [1]) | normalized RNA/DNA level with ligand (log10) (theophylline [2]) | normalized RNA/DNA level without ligand (log10) (theophylline [3]) | FACS-Seq fitted mean (log10) (theophylline [4])
25 | AUUAA | 0.68 ± 0.04 | 1.94 ± 0.11 | 1.74 ± 0.099 | 0.832 ± 0.041
26 | AUUAG | 0.738 ± 0.021 | 2.049 ± 0.0068 | 1.9 ± 0.094 | 0.738 ± 0.013
27 | AUUAC | 1.05 ± 0.17 | 1.99 ± 0.021 | 1.96 ± 0.12 | 0.926 ± 0.096
28 | AUUAU | 0.905 ± 0.075 | 2.01 ± 0.021 | 1.88 ± 0.097 | 0.861 ± 0.095
29 | UUUCC | 1.01 ± 0.062 | 1.99 ± 0.028 | 1.97 ± 0.04 | 0.9258 ± 0.0036
30 | UUGAU | 0.68 ± 0.041 | 2.06 ± 0.1 | 1.82 ± 0.044 | 0.708 ± 0.03
31 | UUGAC | 0.872 ± 0.033 | 2.05 ± 0.042 | 1.93 ± 0.075 | 0.849 ± 0.085
32 | UUGAA | 0.273 ± 0.006 | 1.94 ± 0.08 | 1.29 ± 0.064 | 0.619 ± 0.026
33 | GUUGU | 0.526 ± 0.054 | 1.93 ± 0.19 | 1.84 ± 0.058 | 0.701 ± 0.16
34 | CUUAA | 0.633 ± 0.018 | 1.98 ± 0.15 | 1.61 ± 0.14 | 0.961 ± 0.12
35 | CUUAC | 0.44 ± 0.11 | 2.04 ± 0.065 | 1.95 ± 0.15 | 0.194 ± 0.17
36 | CUUAU | 0.864 ± 0.067 | 2.04 ± 0.071 | 1.907 ± 0.014 | 0.901 ± 0.013
37 | UUUGU | 0.965 ± 0.067 | 2.07 ± 0.082 | 2.02 ± 0.041 | 0.8623 ± 0.0024
38 | UUUGA | 0.62 ± 0.055 | 2.09 ± 0.097 | 1.94 ± 0.021 | 0.856 ± 0.079
39 | GUAAA | 0.745 ± 0.13 | 1.982 ± 0.016 | 1.7 ± 0.045 | 0.936 ± 0.11
40 | GUAAU | 0.914 ± 0.062 | 1.937 ± 0.015 | 1.82 ± 0.085 | 0.966 ± 0.16
41 | AUCGC | 0.925 ± 0.082 | 1.977 ± 0.017 | 1.92 ± 0.11 | 0.889 ± 0.11
42 | AUCGG | 0.827 ± 0.073 | 1.91 ± 0.11 | 1.87 ± 0.051 | 0.782 ± 0.12
43 | AUCGU | 0.902 ± 0.057 | 2.03 ± 0.13 | 1.93 ± 0.042 | 0.848 ± 0.063
44 | AUCGA | 0.863 ± 0.17 | 2.02 ± 0.087 | 1.76 ± 0.19 | 0.825 ± 0.13
45 | AGUGA | 0.239 ± 0.055 | 2 ± 0.0061 | 1.38 ± 0.17 | 0.535 ± 0.0085
46 | AGUGC | 0.289 ± 0.03 | 2.01 ± 0.0061 | 1.87 ± 0.071 | 0.297 ± 0.058
47 | AGUGG | 0.488 ± 0.2 | 1.98 ± 0.064 | 1.84 ± 0.036 | 0.504 ± 0.026
48 | CUCAA | 0.816 ± 0.072 | 1.99 ± 0.05 | 1.67 ± 0.022 | 0.914 ± 0.068

Row | Variant | FACS-Seq fitted mean (log10) (theophylline [1]) | normalized RNA/DNA level with ligand (log10) (theophylline [2]) | normalized RNA/DNA level without ligand (log10) (theophylline [3]) | FACS-Seq fitted mean (log10) (theophylline [4])
49 | CUCAU | 1.03 ± 0.12 | 1.973 ± 0.0058 | 1.85 ± 0.06 | 1.07 ± 0.03
50 | CUCAC | 1.14 ± 0.019 | 2.02 ± 0.075 | 2.02 ± 0.13 | 1.12 ± 0.075
51 | AUGAC | 0.5991 ± 0.0031 | 1.914 ± 0.016 | 1.87 ± 0.16 | 0.786 ± 0.021
52 | AUGAU | 0.439 ± 0.07 | 2.01 ± 0.086 | 1.75 ± 0.12 | 0.262 ± 0.027
53 | AUGAG | 0.655 ± 0.014 | 1.914 ± 0.0079 | 1.812 ± 0.0077 | 0.868 ± 0.029
54 | AUGAA | 0.317 ± 0.045 | 1.94 ± 0.04 | 1.52 ± 0.074 | 0.5036 ± 0.0038
55 | CUAUU | 0.965 ± 0.18 | 2.03 ± 0.023 | 1.85 ± 0.1 | 0.924 ± 0.012
56 | CUAUC | 1.23 ± 0.19 | 1.89 ± 0.059 | 1.93 ± 0.073 | 1.16 ± 0.078
57 | CUAUA | 0.141 ± 0.018 | 1.972 ± 0.0076 | 1.61 ± 0.08 | 0.384 ± 0.024
58 | UUAUG | 0.732 ± 0.015 | 2.06 ± 0.071 | 1.907 ± 0.0097 | 0.821 ± 0.031
59 | UUAUC | 1.09 ± 0.15 | 2.04 ± 0.049 | 1.96 ± 0.16 | 1.19 ± 0.12
60 | UUAUU | 0.914 ± 0.092 | 1.96 ± 0.12 | 1.95 ± 0.11 | 0.942 ± 0.076
61 | UUAAU | 1.13 ± 0.062 | 1.9977 ± 0.0018 | 1.956 ± 0.013 | 1.07 ± 0.036
62 | UUAAA | 0.111 ± 0.099 | 1.895 ± 0.0096 | 1.26 ± 0.013 | 0.545 ± 0.078
63 | UUAAC | 0.885 ± 0.033 | 1.946 ± 0.0047 | 1.93 ± 0.042 | 0.858 ± 0.072
64 | UUAAG | 0.769 ± 0.074 | 2.02 ± 0.033 | 1.855 ± 0.012 | 0.829 ± 0.086
65 | UGUAC | 0.923 ± 0.082 | 1.98 ± 0.024 | 1.95 ± 0.045 | 0.851 ± 0.13
66 | UUUAA | 0.514 ± 0.017 | 2.05 ± 0.08 | 1.69 ± 0.019 | 0.695 ± 0.019
67 | UUUAC | 0.968 ± 0.059 | 2.06 ± 0.073 | 1.98 ± 0.066 | 0.808 ± 0.084
68 | UUUAU | 0.444 ± 0.021 | 2.0202 ± 0.001 | 1.93 ± 0.06 | 0.417 ± 0.012
69 | AUAUC | 0.978 ± 0.081 | 1.912 ± 0.018 | 1.94 ± 0.048 | 1.06 ± 0.012
70 | AUAUG | 0.794 ± 0.14 | 1.99 ± 0.045 | 1.8 ± 0.087 | 0.981 ± 0.043
71 | AUAUU | 0.891 ± 0.015 | 2.05 ± 0.067 | 1.91 ± 0.024 | 0.928 ± 0.12
72 | AUAUA | -0.278 ± 0.26 | 2.006 ± 0.015 | 1.75 ± 0.028 | 0.0109 ± 0.01

Reference: the supplement of paper PMC6757056
